# Source: patent publication US20110189729
# Target: lambda integrase Int-h/218 h/218 mutant (substitutions not given) (Bacteriophage lambda) (UniProt P03700)
# Assay: cell_activity
# Details: attP x attP; no IHF plasmid; CHO-DG44
sequence,measurement,value
TCTGTTACAGGTCACTAATACCATCTAAGTAGTTGATTCATAGTGACTGCATATGTTGTGTTTTACAGTATTATGTAGTCTGTTTTTTATGCAAAATCTAATTTAATATATTGATATTTATATCATTTTACGTTTCTCGTTCAGCTTTTTTATACTAAGTTGGCATTATAAAAAAGCATTGCTTATCAATTTGTTGCAACGAACAGGTCACTATCAGTCAAAATAAAATCATTATTTGATTTC / GAAATCAAATAATGATTTTATTTTGACTGATAGTGACCTGTTCGTTGCAACAAATTGATAAGCAATGCTTTTTTATAATGCCAACTTAGTATAAAAAAGCTGAACGAGAAACGTAAAATGATATAAATATCAATATATTAAATTAGATTTTGCATAAAAAACAGACTACATAATACTGTAAAACACAACATATGCAGTCACTATGAATCAACTACTTAGATGGTATTAGTGACCTGTAACAGA / TCTGTTACAGGTCACTAATACCATCTAAGTAGTTGATTCATAGTGACTGCATATGTTGTGTTTTACAGTATTATGTAGTCTGTTTTTTATGCAAAATCTAATTTAATATATTGATATTTATATCATTTTACGTTTCTCGTTCAGCTTTTTTATACTAAGTTGGCATTATAAAAAAGCATTGCTTATCAATTTGTTGCAACGAACAGGTCACTATCAGTCAAAATAAAATCATTATTTGATTTC / GAAATCAAATAATGATTTTATTTTGACTGATAGTGACCTGTTCGTTGCAACAAATTGATAAGCAATGCTTTTTTATAATGCCAACTTAGTATAAAAAAGCTGAACGAGAAACGTAAAATGATATAAATATCAATATATTAAATTAGATTTTGCATAAAAAACAGACTACATAATACTGTAAAACACAACATATGCAGTCACTATGAATCAACTACTTAGATGGTATTAGTGACCTGTAACAGA [attP ; attP],activity (% fluorescent cells),1.9
